From patent publication US20200123265A1 (AGENUS, published 2020)
Numbering of substitutions follows the chain as printed. In names and notes the source's numbering stands. Each block holds one binder with its values, some of them ahead of it.

Key:
[1] = molecular target: T1, V1M cynomolgus GITR, expressed on 1624-5 cells (cynomolgus, UniProt Q9Y5U5 26-241 (human entry)); test: flow cytometry on 1624-5 cells
T1 chain: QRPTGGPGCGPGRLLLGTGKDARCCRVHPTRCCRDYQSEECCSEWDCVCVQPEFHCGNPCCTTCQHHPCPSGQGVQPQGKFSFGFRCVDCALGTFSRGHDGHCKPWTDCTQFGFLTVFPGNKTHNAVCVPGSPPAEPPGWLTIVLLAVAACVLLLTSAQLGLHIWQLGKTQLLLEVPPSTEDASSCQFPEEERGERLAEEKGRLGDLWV
Text: (§1) As further evidence for the binding characteristics of the anti-GITR antibodies, the binding of the antibodies to cynomolgus GITR was compared. The immature protein of cynomolgus GITR comprises the amino acid sequence of SEQ ID NO: 44. To increase protein expression, the first residue of the signal peptide of cynomolgus GITR was replaced by methionine, generating V1M cynomolgus GITR. A mutant cynomolgus GITR V1M/Q62P/S63G, where the amino acid residues at the positions 62 and 63 (GlnSer), numbered according to SEQ ID NO: 44, were replaced by the corresponding residues in human GITR (ProGly), was then generated. FIG. 7A is a sequence alignment between human GITR, V1M cynomolgus GITR, and V1M/Q62P/S63G cynomolgus GITR.

[2] = molecular target: T2, V1M/Q62P/S63G cynomolgus GITR, expressed on 1624-5 cells (cynomolgus, UniProt Q9Y5U5 26-241 (human entry)); test: flow cytometry on 1624-5 cells, 2 µg/ml
T2 construct: V1M lies in the signal peptide and is left out with it; also called mutant cynomolgus GITR V1M/Q62P/S63G
T2 chain: T1 chain with Q37P, S38G
Text: as §1

[3] = molecular target: T3, GITR antigen (R&D systems, disulfide-linked homodimer; 689-GR) (human, UniProt Q9Y5U5 26-161, R-PE labeled in the Luminex assay; amine-coupled to a CM5 chip in the SPR assay); test: SPR (BIAcore), GITR immobilized on CM5 chip, antibody at 300 nM, in tandem binning
T3 construct: Bought reagent; also called R-PE labeled GITR antigen
T3 sequence (looked up): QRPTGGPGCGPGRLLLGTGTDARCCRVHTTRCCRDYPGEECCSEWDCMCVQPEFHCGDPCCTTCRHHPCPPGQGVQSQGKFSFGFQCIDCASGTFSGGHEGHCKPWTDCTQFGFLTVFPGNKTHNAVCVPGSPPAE
Method: (§2) For epitope binning using surface plasmon resonance the “in tandem approach” was used (Abdiche, Y N et al., Analytical Biochemistry 386: 172-180 (2009)). For that purpose different chip surfaces were generated on a CM5 sensor chip (GE Healthcare, Series S CM5, BR-1005-30) using immobilization of different densities of GITR antigen (R&D systems, disulfide-linked homodimer; 689-GR). Flow cell 2 contained GITR antigen in low density (667 RU), medium density was assessed in flow cell 3 (1595 RU) and in flow cell 4, high density was achieved (4371 RU). In flow cell 1, ovalbumin (1289 RU, Pierce ThermoFisher 77120) was immobilized for reference. Immobilization was performed according to a standard protocol from the manufacturer (GE Healthcare) for amine coupling (activation of surface with 0.4 M EDC and 0.1 M NHS, GE Healthcare Amine coupling kit, BR-1000-50). Unreacted groups were inactivated with 1 M ethanol-amine-HCA, pH8.5. Afterwards anti-GITR antibodies were run through the different surfaces at a concentration of 300 nM (45 μg/ml) for 240 seconds at 5 μl/min. […] A dissociation time of 60 seconds was included before adding the competing antibody (300 nM, 5 μl/min).

[4] = molecular target: T4, human GITR D60A mutant, expressed on 1624-5 cells (human, UniProt Q9Y5U5 26-241); test: flow cytometry on 1624-5 cells, 2 µg/ml, MFI ratio (monoclonal/polyclonal) of mutant against wild type
T4 chain: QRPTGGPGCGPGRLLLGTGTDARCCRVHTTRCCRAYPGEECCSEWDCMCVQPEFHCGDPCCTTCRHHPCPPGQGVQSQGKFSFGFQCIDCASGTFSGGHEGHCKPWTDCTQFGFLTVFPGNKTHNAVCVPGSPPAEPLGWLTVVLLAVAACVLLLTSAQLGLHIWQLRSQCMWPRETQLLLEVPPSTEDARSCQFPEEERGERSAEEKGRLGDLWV
Method: (§3) All the mean fluorescence intensity (MFI) values were calculated as the mean of two measurements.
(§4) The percentages shown in FIG. 6B are the percentages of GITR positive cells in each plot.

[5] = molecular target: T5, human GITR G63A mutant, expressed on 1624-5 cells (human, UniProt Q9Y5U5 26-241); test: as above
T5 chain: T4 chain with A35D, G38A
Method: as §3, §4

[6] = molecular target: T3, GITR antigen (R&D systems, …); test: Luminex suspension array, 20 µg/ml competitor pre-incubated with R-PE labeled GITR; captured antibody 231-32-15
Method: The bead mixture and the antigen/antibody mixture were mixed 1:1 (20 μl from each) and incubated for one additional hour under shaking conditions (20° C., 650rpm), Directly before the measurement, 40 μl of assay buffer was added to each well and analysis was performed using a Luminex® 200 system (Millipore) and a readout of 100 beads in 48 μl sample volume. Binding was determined using the […] values of the non-competed control (100% binding, only assay buffer as competing compound).

[7] = molecular target: T3, GITR antigen (R&D systems, …); test: SPR (BIAcore), GITR immobilized on CM5 chip, antibody at 300 nM, applied after 231-32-15
Method: as §2

B3: pab1875 (antibody, V domains shown)
VH: QVQLVQSGAEVKKPGASVKVSCKGSGYTFTDYAMYWVRQAPGQGLEWIGVIRTYSGDVTYNQKFKDRATMTVDKSISTAYMELSRLRSDDTAVYYCAKSGTVRGFAYWGQGTLVTVSS
VL: DIVMTQSPPTLSLSPGERVTLSCKSSQSLLNSGNQKNYLTWYQQKPGQAPRLLIYWASTRESGIPARFSGSGSGTDFTLTISSLQPEDFAVYHCQNDYSYPYTFGQGTKLEIK
- binding result [6]: binds

B4: m6C8 (antibody, V domains shown)
VH: QVTLKESGPGILKPSQTLSLTCSFSGFSLSTSGMGVGWIRQPSGKGLEWLAHIWWDDDKYYNPSLKSQLTISKDTSRNQVFLKITSVDTADAATYYCARTRRYFPFAYWGQGTLVTVSS
VL: DIVMTQSQKFMSTSVGDRVSVTCKASQNVGTNVAWYQQKPGQSPKALIYSASYRYSGVPDRFTGSGSGTDFTLTINNVHSEDLAEYFCQQYNTDPLTFGAGTKLEIK
notes: Generated based on the variable regions of antibody 6C8 of WO 06/105021; also called murine antibody 6C8
- binding result [7]: binds
- percentage of reduction in binding relative to wild type GITR [4]: 10%
- percentage of increase in binding relative to wild type GITR [5]: 62%

Continued, values first:

- binding result [1]: no binding (tested: 2 µg/ml)
- binding result [2]: binds
- binding result [3]: binds
- percentage of reduction in binding relative to wild type GITR [4]: 82%
- percentage of reduction in binding relative to wild type GITR [5]: 37%
B1: chimeric parental 231-32-15 antibody (antibody, V domains shown)
VH: QVQLLQSGTELVRPGVSVKISCKGSGYTFTDYAMYWVKQSHAKSLEWIGVIRTYSGDVTYNQKFKDKATMTVDKSSSIAYMELARLSSEDSAIYYCAKSGTVRGFAYWGQGTLVTVSS
VL: DIVMTQSPSSLTVTAGEKVIMSCKSSQSLLNSGNQKNYLTWYQQKPGQPPKLLIYWASTRESGVPDRFTGSGSGTDFTLTISSVQAEDLAVYHCQNDYSYPYTFGGGTKLEIK
notes: elsewhere it was used as soluble antibody

- binding result [1]: no binding (tested: 2 µg/ml)
- binding result [2]: binds
- percentage of reduction in binding relative to wild type GITR [4]: 88%
- percentage of reduction in binding relative to wild type GITR [5]: 59%
- binding result [6]: binds
B2: pab1876 (antibody, human IgG1, V domains shown)
VH: B3 VH
VL: DIVMTQSPDSLAVSLGERATINCKSSQSLLNSGNQKNYLTWYQQKPGQPPKLLIYWASTRESGVPDRFSGSGSGTDFTLTISSLQAEDVAVYHCQNDYSYPYTFGQGTKLEIKR
notes: Human IgG1 with T109S (Kabat) in the light chain constant domain
